Laboratory results from paper PMC2712996.

Target: Rabbit skeletal muscle actin (F-actin) (rabbit) (UniProt P68135)
Assay: co-sedimentation

Substance: GST-Cno (aa 1,560–2,051) (domain or fragment)
- percent pelleted with F-actin: 41%
